± gives the standard error. This sample holds only a part of the variants without activity.
B1: glmS ribozyme (parent)
chain: AUAAAAGCGCCAGAACUACAGAAAUGUAGUUGACGAGGAGGAGGUUUAUCGAAUUUUCGGCGGAUGCCUCCAAA

Tests used:
Conditions in all cases: with glucosamine-6-phosphate
glucosamine-6-phosphate [1] = variants of: B1; test: self-cleavage kobs at 40 uM GlcN6P; higher = faster cleavage; RNA array
Method in brief: (§1)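 Barcoded ribozyme variants were transcribed in situ on sequenced MiSeq chips by E. coli RNA polymerase. At 37 °C, a hybridised Cy3 probe tracked them while glucosamine-6-phosphate (40 μM to 10 mM) in HEPES/KCl/Mg(OAc)2 buffer flowed in and tiles were imaged over ~14 h. Per-tile medians of signals normalised to baseline and to non-cleaving reference variants were fit to one- or two-exponential decays, giving kobs. kcat and KM came from weighted Michaelis–Menten fits across concentrations.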

glucosamine-6-phosphate [2] = variants of: B1; test: self-cleavage kobs at 160 uM GlcN6P; higher = faster cleavage; RNA array
Method in brief: as §1

glucosamine-6-phosphate [3] = variants of: B1; test: self-cleavage kobs at 2500 uM GlcN6P; higher = faster cleavage; RNA array
Method in brief: as §1

glucosamine-6-phosphate [4] = variants of: B1; test: self-cleavage kobs at 10000 uM GlcN6P; higher = faster cleavage; RNA array
Method in brief: as §1

glucosamine-6-phosphate [5] = variants of: B1; test: self-cleavage kobs at 640 uM GlcN6P; higher = faster cleavage; RNA array
Method in brief: as §1

Row | Variant | self-cleavage kobs at 40 uM GlcN6P (glucosamine-6-phosphate [1]) [s⁻¹] | self-cleavage kobs at 160 uM GlcN6P (glucosamine-6-phosphate [2]) [s⁻¹] | self-cleavage kobs at 2500 uM GlcN6P (glucosamine-6-phosphate [3]) [s⁻¹] | self-cleavage kobs at 10000 uM GlcN6P (glucosamine-6-phosphate [4]) [s⁻¹] | self-cleavage kobs at 640 uM GlcN6P (glucosamine-6-phosphate [5]) [s⁻¹]
1 | AUAAAAGGGCCAGAACUACAGAAAUGUAGUUGACGAGGAAGAGGUUUAUCGAAUUUUCGGCGGAUGCCUCCAAA | < 1e-05 | < 1e-05 | < 1e-05 | < 1e-05 | –
2 | AUAAAAGCGCCAGAACUACAGAAAUGUAGUUGACGAGGAGGGGGUUUAUCGAAUUUACGGCGGAUUCCUCCAAA | < 1e-05 | – | – | – | –
3 | AUAAAAGCGCCAGAACUACAGAAAUGUAGUUGACGGGGAGCACGUUUGUCGAAUUUUCGGCGGAUGCCUCCAAA | < 1e-05 | – | < 1e-05 | < 1e-05 | –
4 | AUAAAAGCGCCAAAACUACAGAAAUGUAGUUGACGAGGAGGAGGUUUAUCGAUUUUUCGGCGGAUGCCUCCAAA | < 1e-05 | – | 0.000174 ± 4.1e-05 | – | 7.57e-05 ± 2.4e-05
5 | AUAAAAGCGCCAGAACUACAGAAAUGUAGUUCACGAGGAGGAGGUUUAUCGAAUUUUCGGCGGAAGACUCCAAA | 0.000151 ± 3.6e-05 | – | – | 0.00023 ± 5.9e-05 | 0.000426 ± 0.0001
6 | AUAAAAUCGCCAAAACUACAGAAAUGUAGUUGACGAGGAGGAGGUUUAUCGAAUUUUCGGCGGAUGUCUCCAAA | < 1e-05 | – | – | – | –
7 | AUAAAAGCGCUAGAACUACAGAAAUGUAGUUUACGAGGAGGAGGUUUAACGAAUUUUCGGCGGAUGCCUCAAAA | < 1e-05 | – | – | – | –
8 | AUAAAAUCGCCAGAACUACAGAAAUGUAGUUGUCGAGGAGGAGGUUUAUCGAAUUUUCGGCGGGUGCCUGCAAA | < 1e-05 | – | – | – | –
9 | AUAAAAGCGCCAGAACUACAGAAAUGUAGUUGACGAGGAGGACUUUUAUCGAAUUUUUGGCGGAUGCCUCCAAA | < 1e-05 | – | < 1e-05 | – | –
10 | AUAAAAGCGCCUGGACUACAGAAAUGUAGUUGACGAGGAGGAGGUUUAUCGAAUUUUCGGCGGAUGCUUCCAAA | 0.000526 ± 0.0001 | – | – | – | –
11 | AUAAAAGCGCCAGUACUACAGAAAUGUAGUUGACGAGGAGGAGGUUUAUCGCAUUUUCGGCGGAUGCCUCGAAA | < 1e-05 | – | – | – | < 1e-05
12 | AUAAAAGCGCCAAAAGUACAGAAAUGUAGUUGACGAGGAGGAGGUUUAUCGAAUUUUCGGCGGAGGCCUCCAAA | < 1e-05 | – | – | 3.8e-05 ± 1.6e-05 | –
13 | AUAAAAGCGGCAGAACUACAGAAAUGUAGUUGACGAGGAGGAGGUUUAUCGAAUUUUCGGCGGAGGCCUCCAAA | < 1e-05 | < 1e-05 | < 1e-05 | < 1e-05 | < 1e-05
14 | AUAAAAGCGCCAGAACUACAGAAAUGUAGUUGACGAGGAGGAGGUUUAUCGAAUUUUCGGAUGAUGCCUCCAAA | < 1e-05 | < 1e-05 | – | < 1e-05 | < 1e-05
15 | AUAAAAGCGCCAGAACUACAGAAAUGUAGUUGACGAGGAGGAGGUUGAUCGAAUUUUUGGCGGAUGCCUACAAA | 7.14e-05 ± 3e-05 | – | 9.31e-05 ± 2e-05 | 4.44e-05 ± 2.1e-05 | –
